Measurements taken from publication PMC8185509 (Molecular Medicine Reports, 2021).

Target: T1, optic atrophy 1, Myc-tagged (OPA1-myc) (UniProt O60313-1 88-960)
T1 sequence (looked up): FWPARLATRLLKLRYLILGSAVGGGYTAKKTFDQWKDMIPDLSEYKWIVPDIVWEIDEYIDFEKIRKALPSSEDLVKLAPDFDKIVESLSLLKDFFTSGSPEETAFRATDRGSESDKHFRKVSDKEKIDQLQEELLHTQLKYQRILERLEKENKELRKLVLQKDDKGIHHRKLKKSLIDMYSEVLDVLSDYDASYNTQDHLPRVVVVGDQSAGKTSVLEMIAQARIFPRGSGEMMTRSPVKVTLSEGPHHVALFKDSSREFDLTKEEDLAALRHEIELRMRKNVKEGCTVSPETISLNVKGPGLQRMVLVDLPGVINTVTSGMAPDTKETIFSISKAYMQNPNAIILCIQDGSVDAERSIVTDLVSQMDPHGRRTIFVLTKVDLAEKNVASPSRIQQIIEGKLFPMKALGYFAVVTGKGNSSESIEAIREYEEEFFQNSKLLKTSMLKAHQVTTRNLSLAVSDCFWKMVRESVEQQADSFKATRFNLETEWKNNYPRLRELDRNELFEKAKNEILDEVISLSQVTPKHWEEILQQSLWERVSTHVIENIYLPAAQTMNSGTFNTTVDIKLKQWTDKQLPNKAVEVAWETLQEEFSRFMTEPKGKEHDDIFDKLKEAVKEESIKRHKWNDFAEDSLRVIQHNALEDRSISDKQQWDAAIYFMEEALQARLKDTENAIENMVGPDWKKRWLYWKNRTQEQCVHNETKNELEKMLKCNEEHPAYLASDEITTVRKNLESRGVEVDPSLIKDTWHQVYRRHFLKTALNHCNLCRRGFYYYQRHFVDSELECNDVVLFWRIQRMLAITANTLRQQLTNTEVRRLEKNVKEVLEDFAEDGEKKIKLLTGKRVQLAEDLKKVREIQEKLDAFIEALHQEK
Assay: pull-down

B1: recombinant GST-fused HIGD-1B (natural protein, human, UniProt Q9P298 1-99, looked up)
chain: MSANRRWWVPPDDEDCVSEKLLRKTRESPLVPIGLGGCLVVAAYRIYRLRSRGSTKMSIHLIHTRVAAQACAVGAIMLGAVYTMYSDYVKRMAQDAGEK
- binding result: binds
